Measurements as given in paper PMC5764952 (2018).

B1: Untagged murine saposin A (SapA) [mouse] / His6-tagged murine β-galactocerebrosidase (GALC) [modified: glycosylated; glycosylated] [mouse] (parent)
chain 1: MGKSLPCDICKTVVTEAGNLLKDNATQEEILHYLEKTCEWIHDSSLSASCKEVVDSYLPVILDMIKGEMSNPGEVCSALNLCQSLQE
chain 2: YVLDDSDGLGREFDGIGAVSGGGATSRLLVNYPEPYRSEILDYLFKPNFGASLHILKVEIGGDGQTTDGTEPSHMHYELDENYFRGYEWWLMKEAKKRNPDIILMGLPWSFPGWLGKGFSWPYVNLQLTAYYVVRWILGAKHYHDLDIDYIGIWNERPFDANYIKELRKMLDYQGLQRVRIIASDNLWEPISSSLLLDQELWKVVDVIGAHYPGTYTVWNAKMSGKKLWSSEDFSTINSNVGAGCWSRILNQNYINGNMTSTIAWNLVASYYEELPYGRSGLMTAQEPWSGHYVVASPIWVSAHTTQFTQPGWYYLKTVGHLEKGGSYVALTDGLGNLTIIIETMSHQHSMCIRPYLPYYNVSHQLATFTLKGSLREIQELQVWYTKLGTPQQRLHFKQLDTLWLLDGSGSFTLELEEDEIFTLTTLTTGRKGSYPPPPSSKPFPTNYKDDFNVEYPLFSEAPNFADQTGVFEYYMNNEDREHRFTLRQVLNQRPITWAADASSTISVIGDHHWTNMTVQCDVYIETPRSGGVFIAGRVNKGGILIRSATGVFFWIFANGSYRVTADLGGWITYASGHADVTAKRWYTLTLGIKGYFAFGMLNGTILWKNVRVKYPGHGWAAIGTHTFEFAQFDNFRVEAAR

Variants of: B1
Assay: pull-down (immobilised GALC, Coomassie SDS-PAGE, quantified)
Details: with His6-tagged murine β-galactocerebrosidase (GALC) [modified: glycosylated, in the presence of Tween-20, n = 3, read off a plot

Row | Variant | ratio to parent
1 | chain 1 N24Y | 1.3
